The values that follow come from a protein production outcome set (Wang et al. 2014).

The data set in a line: label from the status in PepcDB records.
For “MQDNNARFPTIAKVLILRQFLWGAAFYGAFVLLTKFFLDDLNYSEADTIMMMGAFGAVGPVFSAVGGFLADKFIGAFRAVYIGYATYLAGFLLLGIGASQLNVPMSILAIALIGFARGLSATCPTVLFGNSYSETNREAFQQGLTVNYSINNLGSFSAKYLFPFLIAYLAYQGVFFVSAILMALNLLMFYKFRKELVSVGNDLDKTPLPLKTWVMFFAGSAAMLGLIFWIFSNLETGKYILYTLGFGAIGYFIYEITQATRAYQYKMVAVLITVCILIVFYFFYGQMFTSMNMYAINLMDDTLLGFIPIHPESNMAFNPLWCFVLGGPMIQLYAWLDRKGYSPTIPTKIAGAFMLSTIAFGLLGLSAGSIGENGKISADWILLVHFFQSGAELIVGALGAGFIFEMVPRYLAAFSIGLRAVAISLSGILAAVIATKIALPKDIVFTPEVVETVYTSYFYMLAQVAAFMAILTLGLSKVIQKLIARGEALEAEEKVDTTMRSNIG”, the protein production result is reported as “failed”.

On to “MIGKHFIITGATSGLGFAITNELLQRGAHVTILARNIDKFNRIKENYFKPEHINVIKCDLMQRKDIESLQKFLNTPINGFIYSSGVGYFKSISEHSTREVVETYEVNLTNFNLLYKVIQPQLVKAAYIVGISSQAALVSQANAAHYGASKAGFSAVLNALRLEQPELKVLNVQPGPIDTPFQKNADPTLKYFKNYRHMMIQPQQLAKQIVEGIILNKIEINQPSWMQIMLKFYQLCPRTLEKLCPNLFKNKV”, for which the protein production result is “failed”.

For “MGWLFLLLAVASEAFSHVALKATDGLSHLIPNVIVITGHLGAFYFLSQAMKTLPVGIAHASWAGLAIIAVTLISSAFYHQHLDNKIWLGIGFISIGIAIINLSSTPHVH”, the protein production result was “failed”.

For “MTYSFSKPVSWVFLFTAVIYLVSLSFIQYPATTVLKPIPIVCLIVGVFRTSLSSSAKILLILALVFSLAGDVVLTLPFSLQLELGIACFLLAHCFYITLFLKSFEFNRLHLFYYLPIFLFMGFAAFTMIPYLGNLLIPVMIYFCVLMLMVFSAFQVKKETLTISSGALFFLISDLTLALNLFIYTQADVRIFVMFTYYVAQFLLTFGLVRLYEKGG”, the protein production entry is given as “failed”.

As to “MKYLAFSIVFILTAFTRVTAQNLDGIDKSLSLSKMKTRARIAEETGDIYTALFYYEEVVRNDSSDLKALYQVAEMQRFTRNYKAAEVTYGKIHEIAAADYPLAQYYQGLMQKMTGRYEDAKQTFSEFRKNSAALADKTFKATLARDISGCDSGITYRDFPQNTQIKNAGKSVNFPHTEFSPVILDSTTLAFGSLRIDSVIYYDTRGEHYEKQPVRQLYEAKKVKGQWVEKGLLEAINDPAMDMGNFVYSPTTDRYYFTKCTKNHHGKVSCAIYYSERVSGKWSHPSKLPDPINIEGYTATQPTIVIDTTSSSAATTTPKNMPPRKTGGNKPVPKPVVNTIEYLYFVSDRPKGKGGLDIWYTSYNASKKTWNEPTNLAVANTPETECTPFYHVPTQTLYFSSNGLVNAGGLDIYKLEKDGRRFGRPENLSFPVNSPQDELSFVLADNAKTGFFVSNRPGGTPFFHETCCDDIFSFEVIPPPPFVCTLDLSVLDVAAKNNCDGELLNINQVNLKTKAAEKDTVRLSSCKYTVSLAQHVKYTFFINKPGYVTDTLSFETRDMCATPTITKSLTLVPVSVSMKNSEPVIETPVEGKAFVLKDIQYETNQTDLNDEAKAAIDNILIPFLKEHPTDKIIISSHTDDVGSHKYNENLSDQRALKVMQYLIQKGISAKQIQAKGYGETKPIASNINPDGSENEIGRSINRRTEFLISK”, the protein production result was “failed”.

For the sequence “MDMRSHEMIERRREDNGNNNGGVVISNIISTNIDDNCNGNNNNTRVSCNSQTLDHHQSKSPSSFSISAAAKPTVRYRECLKNHAASVGGSVHDGCGEFMPSGEEGTIEALRCAACDCHRNFHRKEMDGVGSSDLISHHRHHHYHHNQYGGGGGRRPPPPNMMLNPLMLPPPPNYQPIHHHKYGMSPPGGGGMVTPMSVAYGGGGGGAESSSEDLNLYGQSSGEGAGAAAGQMAFSMSSSKKRFRTKFTTDQKERMMDFAEKLGWRMNKQDEEELKRFCGEIGVKRQVFKVWMHNNKNNAKKPPTPTTTL”, the protein production entry is “failed”.

As to “MSMHPFLASPQQKIVSRMSPRPPPSPVCLGDLTHPIIAGLISVIVNYGGTFILVFQAAKIAGLSPELTASWVWSISIGVGLTGLFLSLRYREPIITAWSTPAAAFLVTALATTPYAEAIGAYMISAAAFVVLGLSGYFEKVIRLIPPGIASGLLAGILLQFGIGAFGGASVDPWLVGLLIAAYVALKRFSARYAVVGILLLGLAFLLTQGRVDLSGLKLVFAAPVFSMPEFSLNALLSVALPLFLITLTGQYMPGMLVLRNDGFKTSANPIVTVTGLGSLIMAPFGSHAFNIAAITAAIATGREAHEDPSKRWIAGIAAGCFYVLVGVFGVTLAAVFMAFPATFITTLAGLALLGTIGGSLAGAMADPTSREAALITFLASAANIKLLGIGGAFWGLLIGGLAYVVLNGPMPYRATTDHRVTEAAAK”, the protein production entry is reported as “failed”.

On to “MKIKVALLDKDKEYLDRLTGVFNTKYADKLEVYSFTDEKNAIESVKEYRIDVLIAEEDFNIDKSEFKRNCGLAYFTGTPGIELIKDEIAICKYQRVDVIFKQILGVYSDMAANVATISGENDKSSVVIFTSPCGGVGTSTVAAACAIAHANMGKKVFYLNIEQCGTTDVFFQAEGNATMSDVIYSLKSRKANLLLKLESCIKQSQEGVSYFSSTKVALDILEISYADIDTLIGNIQGMDNYDEIIVDLPFSLEIEKLKLLSKAWRIIVVNDGSQLSNYKFMRAYESVVLLEQNDDINIIRNMNMIYNKFSNKNSEMLSNISIKTIGGAPRYEHATVRQIIEALTKMEFFEEILQ”, for which the protein production result is “not failed”.

Regarding “MYFGQNEACKKNHVVIHNELGPGIDLNIACRQFSIERTPSMFHTLKYKDPFYIIEFEDNNQLPHGERWYCLLSHGTRPKYWYDIEVYRQGYYPSCGQLRSWIAKQDGIWFTRRYDSPPGHVLNWKIQ”, the protein production entry is recorded as “failed”.

As for “DSKDLALCSMILTEMETHEDAWPFLLPVNLKLVPGYKKVIKKPMDFSTIREKLSSGQYPNLETFALDVRLVFDNCETFNEDDSDIGRAGHNMRKYFEKKWTDTFK”, the protein production result is on record as “not failed”.

“MDKTKRKMIYETFMLILILLSLALLPYRNNFTFILNWIIWVIFTLDYLVRLYRADNKWHYVKTHPFQLIAIIPFYGGFRAARIVSFVHLLSITAMGRRYIVPIYSFFRSNGLNRFLMIFVLLVIIIPVPMVFIEPEINNYPDALWWAIVTATTVGYGDIVPVTPIGRILASIMMLFGIAFIGMITSTITNFFRAKKPTNSSTQRANKITQLISETPDLTKEEIAVVEQFLTLRKKELADENTKSDSE”: the protein production result is given as “failed”.

As for “MIHLVSLLALAFAVSLDSFGVGLTYGLRKMKIPFKSLLFIAGCSAVSILIAMGFGMTIQQYLSPAIAESLGGIILILIGCWALYQAFRPAKNGHKTKDDHVILNFEIKMLGVVIRILRKPMVADFDNSGAITGREAVILGIALSLDAFGAGIGAALIGFHPLYMAVSVAVMSALFVSLGMKSGYRFADSYWIKRFSFIPGLLLVLIGVFNLMM”, the protein production entry is on record as “failed”.

Take “LHRIVDKMHDTSTGIRPSPNMEQGSTYKKTFLGSSLVDWLISSNFAASRLEAVTLASMLMEENFLRPVGVRSMGAIRSGDLAEQFLDDSTALYTFAESYKKKVSSKE”: the protein production result was “not failed”.

In the case of “MTPGGLFLPYHSLPQPDFLASCPTRHLKLCQCPGILAENPHQFSPTFPPGKGSCQHGALPGQVSLKEAAHTEMSLSGQDLFPSPAHPPLQPFWLPFSLCLSTPFLVADNELRLPKGQICPLHVFVLANRVVLKLCANSVWEHSKGIT”, the protein production result is “failed”.

With “MDFPQHSQHVLEQLNQQRQLGLLCDCTFVVDGVHFKAHKAVLAACSEYFKMLFVDQKDVVHLDISNAAGLGQVLEFMYTAKLSLSPENVDDVLAVATFLQMQDIITACHALKSLAEPATSPGGNAEALATEGGDKRAKEEKVATSTLSRLEQAGRSTPIGPSRDLKEER”, the protein production result is listed as “failed”.

As to “MSLREVALKILIVEDDTDAREWLSTIISNHFPEVWSAGDGEEGERLFGLHAPDVIITDIRMPKLGGLEMLDRIKAGGAKPYVIVISAFSEMKYFIKAIELGVHLFLPKPIEPGRLMETLEDFRHIKLAKEGHHHHHH”, the protein production result was “not failed”.

For the sequence “MPELPEVETTRRRLRPLVLGQTLRQVVHRDPARYRNTALAEGRRILEVDRRGKFLLFALEGGVELVAHLGMTGGFRLEPTPHTRAALVLEGRTLYFHDPRRFGRLFGVRRGDYREIPLLLRLGPEPLSEAFAFPGFFRGLKESARPLKALLLDQRLAAGVGNIYADEALFRARLSPFRPARSLTEEEARRLYRALREVLAEAVELGGSTLSDQSYRQPDGLPGGFQTRHAVYGREGLPCPACGRPVERRVVAGRGTHFCPTCQGEGP”, the protein production result is “not failed”.

With “MKIRTIARASLLSAAIALAVTGCNSEPDMSQEDIQYISHVDQARFFQRQGELKASTIEARSAIDLQPNRTAPYFVIIHNLLTAGDAANAERQLDKLLENTNIEELGQSERNQAALIRAEARILQGKHQEALESLDQISSPSPDQQLQADNLKGRAWLTSGDFDKAEEAYQSAFDKHSNNVVAMVGLSRVATAKGDFDTAKERLEKAIEIDAEHEDVWLWRAQFAHAQQQWAEAEQAYIRALETIGQFDVMTFRKYQTISALITVLREQGKSAEAFVYEEILAKSGPGTIKSNLEAAASAYNDGDLNTAARYLQEVLNQVPNHQQSALMLGVIRYRQGRPEEAEKLLAPLADMENADEVRKLLAATRISMRDPAGAKSLLEDLEGSDADPQTLALVGIASLASGDDQSGRQLLEKSLELAPDNHNLRLRYAAYLTQTRDFANAIKQARQIPSDATEALQATILTSQAQALSGNSQTATDTLDTWLKANPDSMAALIARGNLASSLNNTQQAASYFERAHKQHPEEAAPLVALGNLAREQQNTEQAIAWYRQAVETNPNNLPAIQALAGVMKRDQLTGLMQEISSKHPEANGPRLILLESALINNDTLQADELTARLMEREREDQPSPAEPLVAAVYEGIATQMAQRENSERALEILSRGRTLFPENEAIALKVAAIEFSNGNATAARSALQDAKQHHPDSPAPYQVEASYYENQGEHQQAAELYQLALAKRQTAELAIAHARALSNAGRSQNSIEALQEANKQFPNNSSILLTLALQTQQAGQTDAAIEHYQQVLQLTPDNALALNNLAWLYYEAGNSEAASLAKRAYELVPENAAIADTYGWILFEAGEHEQSLAVLERAHSLAPDSQEIAMHLAEAYRATGRTDAAQQIMDKFSTGNNG”, the protein production result was “failed”.

In the case of “MSLSGTLIGAAAGGTVGLVASIYRDSKRKIIRDLQKQDIQYVEYGDTRTLIIPTDKYFMFSSPRLNEICYPGLNNVIRLLNFYPQSTIYVAGFTDNVGSRSHKRKLSQAQAETMMTFLWANGIAAKRLKAEGYGDKNAISDNAIIHGSAQNRRIEIQWFTSEGHHHHHH”, the protein production result was “not failed”.

In the case of “MNSTLFSQVENHSVHSNFSEKNAQLLAFENDDCHLPLAMIFTLALAYGAVIILGVSGNLALIIIILKQKEMRNVTNILIVNLSFSDLLVAIMCLPFTFVYTLMDHWVFGEAMCKLNPFVQCVSITVSIFSLVLIAVERHQLIINPRGWRPNNRHAYVGIAVIWVLAVASSLPFLIYQVMTDEPFQNVTLDAYKDKYVCFDQFPSDSHRLSYTTLLLVLQYFGPLCFIFICYFKIYIRLKRRNNMMDKMRDNKYRSSETKRINIMLLSIVVAFAVCWLPLTIFNTVFDWNHQIIATCNHNLLFLLCHLTAMISTCVNPIFYGFLNKNFQRDLQFFFNFCDFRSRDDDYETIAMSTMHTDVSKTSLKQASPVAFKKINNNDDNEKI”, the protein production entry is “failed”.

Turning to “MSLDKIRYGIMSTAQIVPRFVAGLRESAQAEVRGIASRRLENAQKMAKELAIPVAYGSYEELCKDETIDIIYIPTYNQGHYSAAKLALSQGKPVLLEKPFTLNAAEAEELFAIAQEQGVFLMEAQKSVFLPITQKVKATIQEGGLGEILWVQSVTAYPNVDHIPWFYSREAGGGALHGSGSYPLQYLQYVLGKEIQEVTGTATYQQGATDSQCNLALKFAEGTLGNIFINVGLKIPSEMTICGTKGQIVIPNFWKTDCAYYTDAQGNTVKWSEQFTSEFTYEINHVNQCLQDKKLTSPVMTKELTIATVKIVESFYQEWFDNEGHHHHHH”, the protein production entry is recorded as “not failed”.
